In the supplement of paper PMC7877785:
± gives the uncertainty stated by the source.

Assay: self-splicing fitness, log relative to wild type (ln ratio); higher = more splicing; Tetrahymena group I intron in knt gene, E. coli kanamycin selection, DiMSum; sequences stand for … in CUCUCU…GGAGGGAAAAGUUAUCAGGCAUGCACCUGGUAGCUAGUCUUUAAACCAAUAGAUUGCAUCGGUUUAAAAGGCAAGACCGUCAAAUUGCGGGAAAGGGGUCAACAGCCGUUCAGUACCAAGUCUCAGGGGAAACUUUGAGAUGGCCUUGCAAAGGGUAUGGUAAUAAGCUGACGGACAUGGUCCUAACCACGCAGCCAAGUCCUAAGUCAACAGAUCUUCUGUUGAUAUGGAUGCAGUUCACAGACUAAAUGUCGGUCGGGGAAGAUGUAUUCUUCUCAUAAGAUAUAGUCGGACCUCUCCUUAAUGGGAGCUAGCGGAUGAAGUGAUGCAACACUGGAGCCGCUGGGAACUAAUUUGUAUGCGAAAGUAUAUUGAUUAGUUUUGGAGUACUCGUGGUCG
In short: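 The eight P1ex-region nucleotides of an intron in the knt kanamycin-resistance gene on pET-22b(+) were all randomised and the library put into E. coli BL21(DE3). Six replicate transformations were grown overnight at 37°C or 30°C on LB agar with or without 25 μg/mL kanamycin, together with 100 μg/mL carbenicillin, 50 μM IPTG and 0.2% rhamnose. Colonies were pooled and amplicon-sequenced on an Illumina HiSeq 2500. Fitness from DiMSum is the error-weighted combination of wild-type-normalised replicate fold changes, kanamycin over none.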

For GAGGAGCAAUAUUACGCUUA, the “self-splicing fitness (ln)” value (30 °C) was -1.5 ± 0.16 and the “self-splicing fitness (ln)” value (37 °C) was -1.42 ± 0.21.
For GAGGAGCAAUAUUACGGAGC, the “self-splicing fitness (ln)” value (37 °C) was -0.748 ± 0.26.
For GAGGAGCAAUAUUACGGCAU, the “self-splicing fitness (ln)” value (37 °C) was -1.87 ± 0.46.
In the case of GAGGAGCAAUAUUACGGCCC, the “self-splicing fitness (ln)” value (30 °C) is reported as -0.89 ± 0.29 and the “self-splicing fitness (ln)” value (37 °C) is reported as -0.616 ± 0.49.
With GAGGAGCAAUAUUACGGCGU the “self-splicing fitness (ln)” value (30 °C) was -1.72 ± 0.16 and the “self-splicing fitness (ln)” value (37 °C) was -0.0856 ± 0.14.
With GAGGAGCAAUAUUACGGGCU the “self-splicing fitness (ln)” value (30 °C) was -2.72 ± 0.48 and the “self-splicing fitness (ln)” value (37 °C) was -1.83 ± 0.29.
In the case of GAGGAGCAAUAUUACGGUCG, the “self-splicing fitness (ln)” value (30 °C) is reported as -1.43 ± 0.14 and the “self-splicing fitness (ln)” value (37 °C) is reported as -2.19 ± 0.29.
With GAGGAGCAAUAUUACGGUUG the “self-splicing fitness (ln)” value (30 °C) was -3.94 ± 0.23 and the “self-splicing fitness (ln)” value (37 °C) was -2.17 ± 0.2.
In the case of GAGGAGCAAUAUUACGUAGA, the “self-splicing fitness (ln)” value (30 °C) is reported as -4 ± 0.24 and the “self-splicing fitness (ln)” value (37 °C) is reported as -2.22 ± 0.19.
With GAGGAGCAAUAUUACGUCAU the “self-splicing fitness (ln)” value (30 °C) was -2.41 ± 0.39 and the “self-splicing fitness (ln)” value (37 °C) was -2.26 ± 0.4.
In the case of GAGGAGCAAUAUUACGUGUA, the “self-splicing fitness (ln)” value (37 °C) is reported as -3.62 ± 0.35.
In the case of GAGGAGCAAUAUUACGUUAC, the “self-splicing fitness (ln)” value (30 °C) is reported as -3.66 ± 0.25 and the “self-splicing fitness (ln)” value (37 °C) is reported as -3.09 ± 0.4.
In the case of GAGUAGCAAUAUUACGAAAC, the “self-splicing fitness (ln)” value (30 °C) is reported as -2.82 ± 0.32 and the “self-splicing fitness (ln)” value (37 °C) is reported as -2.56 ± 0.27.
In the case of GAGUAGCAAUAUUACGAACG, the “self-splicing fitness (ln)” value (30 °C) is reported as -2.36 ± 0.48.
In the case of GAGUAGCAAUAUUACGAAUU, the “self-splicing fitness (ln)” value (30 °C) is reported as -2.14 ± 0.22 and the “self-splicing fitness (ln)” value (37 °C) is reported as -1.36 ± 0.17.
In the case of GAGUAGCAAUAUUACGACUG, the “self-splicing fitness (ln)” value (30 °C) is reported as 0.34 ± 0.24 and the “self-splicing fitness (ln)” value (37 °C) is reported as -0.96 ± 0.21.
With GAGUAGCAAUAUUACGAGAU the “self-splicing fitness (ln)” value (30 °C) was -4.02 ± 0.29 and the “self-splicing fitness (ln)” value (37 °C) was -2.51 ± 0.28.
In the case of GAGUAGCAAUAUUACGAUAU, the “self-splicing fitness (ln)” value (30 °C) is reported as -2.42 ± 0.1 and the “self-splicing fitness (ln)” value (37 °C) is reported as -1.51 ± 0.14.
In the case of GAGUAGCAAUAUUACGCACC, the “self-splicing fitness (ln)” value (30 °C) is reported as -0.317 ± 0.25 and the “self-splicing fitness (ln)” value (37 °C) is reported as -1.31 ± 0.24.
For GAGUAGCAAUAUUACGCGGC, the “self-splicing fitness (ln)” value (37 °C) was -1.74 ± 0.45.
With GAGUAGCAAUAUUACGGCCC the “self-splicing fitness (ln)” value (30 °C) was -0.847 ± 0.18 and the “self-splicing fitness (ln)” value (37 °C) was 0.0966 ± 0.35.
With GAGUAGCAAUAUUACGGCGA the “self-splicing fitness (ln)” value (30 °C) was -0.645 ± 0.16 and the “self-splicing fitness (ln)” value (37 °C) was -0.441 ± 0.2.
In the case of GAGUAGCAAUAUUACGGCUC, the “self-splicing fitness (ln)” value (30 °C) is reported as -2.59 ± 0.37 and the “self-splicing fitness (ln)” value (37 °C) is reported as -2.51 ± 0.48.
With GAGUAGCAAUAUUACGGGAC the “self-splicing fitness (ln)” value (30 °C) was -3.17 ± 0.35 and the “self-splicing fitness (ln)” value (37 °C) was -1.41 ± 0.22.
With GAGUAGCAAUAUUACGGGGG the “self-splicing fitness (ln)” value (37 °C) was -3.08 ± 0.35.
With GAGUAGCAAUAUUACGGUCG the “self-splicing fitness (ln)” value (30 °C) was -1.15 ± 0.16 and the “self-splicing fitness (ln)” value (37 °C) was -0.697 ± 0.19.
For GAGUAGCAAUAUUACGUCCC, the “self-splicing fitness (ln)” value (30 °C) was -0.805 ± 0.21 and the “self-splicing fitness (ln)” value (37 °C) was -0.255 ± 0.23.
For GAGUAGCAAUAUUACGUUGC, the “self-splicing fitness (ln)” value (30 °C) was -3.27 ± 0.23 and the “self-splicing fitness (ln)” value (37 °C) was -1.79 ± 0.27.
For GAUAAGCAAUAUUACGACCA, the “self-splicing fitness (ln)” value (30 °C) was -1.18 ± 0.14 and the “self-splicing fitness (ln)” value (37 °C) was -0.0759 ± 0.21.
In the case of GAUAAGCAAUAUUACGACUG, the “self-splicing fitness (ln)” value (30 °C) is reported as -1.18 ± 0.2 and the “self-splicing fitness (ln)” value (37 °C) is reported as 0.14 ± 0.25.
With GAUAAGCAAUAUUACGAGAG the “self-splicing fitness (ln)” value (30 °C) was -2.84 ± 0.26 and the “self-splicing fitness (ln)” value (37 °C) was -3.04 ± 0.4.
With GAUAAGCAAUAUUACGAUUC the “self-splicing fitness (ln)” value (30 °C) was -1.39 ± 0.14 and the “self-splicing fitness (ln)” value (37 °C) was -1.41 ± 0.17.
For GAUAAGCAAUAUUACGCAAA, the “self-splicing fitness (ln)” value (30 °C) was -1.8 ± 0.16 and the “self-splicing fitness (ln)” value (37 °C) was -1.49 ± 0.2.
In the case of GAUAAGCAAUAUUACGCCGU, the “self-splicing fitness (ln)” value (30 °C) is reported as -0.976 ± 0.15 and the “self-splicing fitness (ln)” value (37 °C) is reported as -0.545 ± 0.17.
In the case of GAUAAGCAAUAUUACGCGCG, the “self-splicing fitness (ln)” value (30 °C) is reported as -0.359 ± 0.096 and the “self-splicing fitness (ln)” value (37 °C) is reported as 0.119 ± 0.15.
For GAUAAGCAAUAUUACGCGUU, the “self-splicing fitness (ln)” value (30 °C) was -2.05 ± 0.14 and the “self-splicing fitness (ln)” value (37 °C) was -2.95 ± 0.32.
For GAUAAGCAAUAUUACGCUGU, the “self-splicing fitness (ln)” value (30 °C) was -3.45 ± 0.18 and the “self-splicing fitness (ln)” value (37 °C) was -2.18 ± 0.2.
For GAUAAGCAAUAUUACGCUUU, the “self-splicing fitness (ln)” value (30 °C) was -1.7 ± 0.14 and the “self-splicing fitness (ln)” value (37 °C) was -2.17 ± 0.21.
With GAUAAGCAAUAUUACGGAAU the “self-splicing fitness (ln)” value (30 °C) was -3.09 ± 0.14 and the “self-splicing fitness (ln)” value (37 °C) was -2.28 ± 0.14.
With GAUAAGCAAUAUUACGGCAU the “self-splicing fitness (ln)” value (30 °C) was -0.333 ± 0.06 and the “self-splicing fitness (ln)” value (37 °C) was 0.188 ± 0.085.
